T1: FcγRIIb (human, UniProt P31994 43-217)
T1 construct: extracellular domain; also called FcgRIIb; CD32B
T1 sequence (looked up): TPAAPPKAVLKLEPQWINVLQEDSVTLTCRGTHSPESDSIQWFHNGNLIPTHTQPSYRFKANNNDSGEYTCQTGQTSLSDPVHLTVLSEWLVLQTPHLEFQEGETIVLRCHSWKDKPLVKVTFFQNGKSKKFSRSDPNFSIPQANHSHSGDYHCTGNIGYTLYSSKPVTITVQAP

B1: GpH7-A5/GpH7-B3 variant P329_04F/GpL16-k0 (antibody, human IgG1, kappa)
heavy 1: not shown
heavy 2: not shown
light: DIVMTQSPLSLPVTPGEPASISCQASESLVHSNRNTYLHWYLQKPGQSPQLLIYKVSNRFSGVPDRFSGSGSGTDFTLKISRVEAEDVGVYYCSQNTHVPPTFGQGTKVEIERTVAAPSVFIFPPSDEQLKSGTASVVCLLNNFYPREAKVQWKVDNALQSGNSQESVTEQDSKDSTYSLSSTLTLSKADYEKHKVYACEVTHQGLSSPVTKSFNRGEC
notes: He Ab; mutation in the GpH7-B3 chain only; also called He Ab
B2: GpH7-A5/GpH7-B3 variant I336_19Q/GpL16-k0 (antibody, human IgG1, kappa)
heavy 1: not shown
heavy 2: not shown
light: B1 light
notes: as for B1
B3: GpH7-A5/GpH7-B3 variant T335_12R/GpL16-k0 (antibody, human IgG1, kappa)
heavy 1: not shown
heavy 2: not shown
light: B1 light
notes: as for B1
B4: GpH7-A5/GpH7-B3 variant L328_01G/GpL16-k0 (antibody, human IgG1, kappa)
heavy 1: not shown
heavy 2: not shown
light: B1 light
notes: as for B1
B5: GpH7-A5/GpH7-B3 variant P329_16H/GpL16-k0 (antibody, human IgG1, kappa)
heavy 1: not shown
heavy 2: not shown
light: B1 light
notes: as for B1
B6: GpH7-A5/GpH7-B3 variant I336_20W/GpL16-k0 (antibody, human IgG1, kappa)
heavy 1: not shown
heavy 2: not shown
light: B1 light
notes: as for B1
B7: GpH7-A5/GpH7-B3 variant P331_01G/GpL16-k0 (antibody, human IgG1, kappa)
heavy 1: not shown
heavy 2: not shown
light: B1 light
notes: as for B1
B8: GpH7-A5/GpH7-B3 variant T335_11K/GpL16-k0 (antibody, human IgG1, kappa)
heavy 1: not shown
heavy 2: not shown
light: B1 light
notes: as for B1
B9: GpH7-A5/GpH7-B3 variant I336_13S/GpL16-k0 (antibody, human IgG1, kappa)
heavy 1: not shown
heavy 2: not shown
light: B1 light
notes: as for B1
B10: GpH7-A5/GpH7-B3 variant I336_01G/GpL16-k0 (antibody, human IgG1, kappa)
heavy 1: not shown
heavy 2: not shown
light: B1 light
notes: as for B1
B11: GpH7-A5/GpH7-B3 variant P329_13S/GpL16-k0 (antibody, human IgG1, kappa)
heavy 1: not shown
heavy 2: not shown
light: B1 light
notes: as for B1
B12: GpH7-A5/GpH7-B3 variant P329_20W/GpL16-k0 (antibody, human IgG1, kappa)
heavy 1: not shown
heavy 2: not shown
light: B1 light
notes: as for B1
B13: GpH7-A5/GpH7-B3 variant P329_14T/GpL16-k0 (antibody, human IgG1, kappa)
heavy 1: not shown
heavy 2: not shown
light: B1 light
notes: as for B1
B14: GpH7-A5/GpH7-B3 variant I336_02A/GpL16-k0 (antibody, human IgG1, kappa)
heavy 1: not shown
heavy 2: not shown
light: B1 light
notes: as for B1
B15: GpH7-A5/GpH7-B3 variant P329_02A/GpL16-k0 (antibody, human IgG1, kappa)
heavy 1: not shown
heavy 2: not shown
light: B1 light
notes: as for B1
B16: GpH7-A5/GpH7-B3 variant P329_06M/GpL16-k0 (antibody, human IgG1, kappa)
heavy 1: not shown
heavy 2: not shown
light: B1 light
notes: as for B1
B17: GpH7-A5/GpH7-B3 variant P329_12R/GpL16-k0 (antibody, human IgG1, kappa)
heavy 1: not shown
heavy 2: not shown
light: B1 light
notes: as for B1
B18: GpH7-A5/GpH7-B3 variant P329_18N/GpL16-k0 (antibody, human IgG1, kappa)
heavy 1: not shown
heavy 2: not shown
light: B1 light
notes: as for B1

Columns and labels:
FcγRIa [1] = biological target: T2, FcγRIa (human, UniProt P12314 16-292); experiment: ratio of He/Con_1a to He/Con_2b (FcγRIa over FcγRIIb), SPR
T2 construct: extracellular domain; also called FcgRI; CD64
T2 sequence (P12314 16-292): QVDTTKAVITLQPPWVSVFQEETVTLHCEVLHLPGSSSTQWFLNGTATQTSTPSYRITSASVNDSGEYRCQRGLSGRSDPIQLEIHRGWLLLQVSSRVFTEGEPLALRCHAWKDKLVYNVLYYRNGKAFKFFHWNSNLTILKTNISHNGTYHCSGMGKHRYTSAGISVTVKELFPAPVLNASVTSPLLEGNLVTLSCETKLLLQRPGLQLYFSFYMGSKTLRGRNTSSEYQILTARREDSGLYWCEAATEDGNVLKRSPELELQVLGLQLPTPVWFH
Experimental: (§1) The heterodimerized antibodies He Abs in which one of the H chains was introduced with an alteration were assayed for their binding activities to each activating FcγR and inhibitory FcγR according to the method described in Example 4. […] The activating FcγRs in FIGS. 26, 27, 28, and 29 are FcγRIa, FcγRIIa (R), FcγRIIa (H), and FcγRIIIa, respectively.
(§2) Analysis of interaction between objective antibody and the FcγR was carried out using Biacore T100 (GE Healthcare). HBS-EP+ (GE Healthcare) was used as the running buffer, and the measurement temperature was set to 25° C. Chips produced by immobilizing the antigen peptide by the amine coupling method to a Series S Sencor Chip CM5 (GE Healthcare), or alternatively, chips produced by allowing preliminarily biotinylated antigen peptides to interact with and immobilize onto a Series S Sensor Chip SA (certified) (GE Healthcare) were used. Antibodies of interest were captured onto an antigen peptide-immobilized chip, and allowed to interact to each FcγR diluted with running buffer. To regenerate and repeatedly use the chip, the antibodies captured on the chip were washed off by reacting 10 mM glycine-HCl, pH 1.5.

FcγRIa [2] = biological target: T2, FcγRIa; experiment: SPR (Biacore), captured antibody, soluble FcγR; relative to GpH7-A5/GpH7-B3/GpL16-k0 = 100
Experimental: as §1, §2

FcγRIIb = biological target: T1, FcγRIIb; experiment: as above
Experimental: as §1, §2

| Binder | He_1a/2b (Ia/IIb) (FcγRIa [1]) | He/Con_1a (FcγRIa [2]) | He/Con_2b (FcγRIIb) |
| --- | --- | --- | --- |
| B1 | 2.88 | 92.7 % of control | 32.2 % of control |
| B2 | 1.78 | 104 % of control | 58.2 % of control |
| B3 | 1.23 | 113 % of control | 91.9 % of control |
| B4 | 1.21 | 97.2 % of control | 80.2 % of control |
| B5 | 2.45 | 95.6 % of control | 39.1 % of control |
| B6 | 4.28 | 86.7 % of control | 20.3 % of control |
| B7 | 1.88 | 85.3 % of control | 45.4 % of control |
| B8 | 1.22 | 111 % of control | 91 % of control |
| B9 | 1.22 | 102 % of control | 83.7 % of control |
| B10 | 1.21 | 109 % of control | 90.1 % of control |
| B11 | 2.27 | 93.3 % of control | 41 % of control |
| B12 | 2.15 | 96.9 % of control | 45.1 % of control |
| B13 | 2.37 | 89.7 % of control | 37.9 % of control |
| B14 | 1.25 | 106 % of control | 84.9 % of control |
| B15 | 2.52 | 102 % of control | 40.5 % of control |
| B16 | 2.94 | 85.3 % of control | 29.1 % of control |
| B17 | 4.22 | 74.3 % of control | 17.6 % of control |
| B18 | 2.29 | 92.4 % of control | 40.4 % of control |
